We go through two proteins from paper PMC7948467, “Discovery of an ultraspecific triuret hydrolase (TrtA) establishes the triuret biodegradation pathway” (The Journal of Biological Chemistry, 2020).

Substrate in the series: NC(=O)NC(=O)NC(N)=O
Briefly: ammonia release, Berthelot assay. The note with it: phosphate buffer. The format is biochemical, Herbaspirillum sp. BH-1.

Setting [1] is: pH 6.5 (optimum), 25 °C, His-tag kept.

B1: TrtA (Herbaspirillum sp. BH-1) (protein)
chain: MIRIDATPYPYQFHPRSTALVVIDMQRDFIEEGGFGSALGNDVRPLAAIVPTVAALLQLAREAGMLVVHTRESHLPDLSDCPRSKRLRGNPTLGIGDVGPMGRILVQGEPGNQILPQLAPVEGELVIDKPGKGAFYATDLHAQLQERRITHLLVAGVTTEVCVQTSMREANDRGYECLVIEDACASYFPDFHRITLEMLTAQGGIVGWRTPLAQLQAGVAAYTGENP
notes: N-terminal 6xHis tag and thrombin site kept, pET28a, E. coli BL21(DE3), codon-optimized; subunit 24 kDa, homodimer
Take B1: under setting [1], the Km is 21 ± 3 µM, the kcat was determined as 11 ± 1 s⁻¹ and the kcat/Km was 530000 ± 100000 M⁻¹ s⁻¹.

B2: TrtA +Cleaved His-tag (Herbaspirillum sp. BH-1) (protein)
chain: B1 chain
notes: N-terminal 6xHis tag cut by thrombin, E. coli BL21(DE3); homodimer ~48 kDa; crystal rows placed here, but may be the C-terminal deletion construct
Consider B2, for which, for the setting “pH 8, 25 °C”, the Km was found to be 15 ± 3 µM, the turnover number (kcat) was 8.8 ± 0.4 s⁻¹ and the kcat/Km worked out at 610000 ± 160000 M⁻¹ s⁻¹.
